Stoichiometry N data for two substances are collected here from paper PMC11406519.

The target of experiment [1] is GNNV-P: Dragon grouper NNV capsid protein P-domain (aa 221–338) plus the flexible linker (aa 214–220), wild type (Dragon grouper nervous necrosis virus). In words: AUC; sedimentation velocity, pH 5.0, no divalent ions; 0.25–0.4 mg/mL, 60,000 rpm, 20 °C, absorbance at 280 nm, c(s) model (SEDFIT); monomer to trimer.
Experiment [2] concerns the target GNNV-P R276A (Dragon grouper nervous necrosis virus). The experiment is described as above.

Usually stoichiometry N stands for the number of molecules, sites or subunits per partner or assembly. In the case of “GNNV-P: Dragon grouper NNV capsid protein P-domain (aa 221–338) plus the flexible linker (aa 214–220), wild type (domain or fragment)”, the stoichiometry N in experiment [1] was 3.
GNNV-P R276A (domain or fragment) registered a stoichiometry N in experiment [2] of 3.
